Values belong to the binder of their own block, whether it stands above or below them.
What was measured:
[1] = target: T1, His-tagged ectodomain of human transferrin receptor 1 (hTfR1, R121-F760) (human, UniProt P02786 121-760); assay: SPR Biacore 8K single-cycle; hTfR1 amine-coupled to CM5 chip, fusion as analyte
T1 construct: Made in CHO cells; Biotinylated for some uses; also called human TfR1

[2] = target: T2, His-tagged ectodomain of mouse transferrin receptor 1 (mTfR1, S122-F763) (mouse, UniProt Q62351 122-763); assay: ELISA on coated TfR1 ectodomain; 125I-labelled or original sample, anti-VHH detection
T2 construct: also called mouse TfR1
T2 sequence (Q62351 other isoform, or with tags, fused parts or gaps limits assumed): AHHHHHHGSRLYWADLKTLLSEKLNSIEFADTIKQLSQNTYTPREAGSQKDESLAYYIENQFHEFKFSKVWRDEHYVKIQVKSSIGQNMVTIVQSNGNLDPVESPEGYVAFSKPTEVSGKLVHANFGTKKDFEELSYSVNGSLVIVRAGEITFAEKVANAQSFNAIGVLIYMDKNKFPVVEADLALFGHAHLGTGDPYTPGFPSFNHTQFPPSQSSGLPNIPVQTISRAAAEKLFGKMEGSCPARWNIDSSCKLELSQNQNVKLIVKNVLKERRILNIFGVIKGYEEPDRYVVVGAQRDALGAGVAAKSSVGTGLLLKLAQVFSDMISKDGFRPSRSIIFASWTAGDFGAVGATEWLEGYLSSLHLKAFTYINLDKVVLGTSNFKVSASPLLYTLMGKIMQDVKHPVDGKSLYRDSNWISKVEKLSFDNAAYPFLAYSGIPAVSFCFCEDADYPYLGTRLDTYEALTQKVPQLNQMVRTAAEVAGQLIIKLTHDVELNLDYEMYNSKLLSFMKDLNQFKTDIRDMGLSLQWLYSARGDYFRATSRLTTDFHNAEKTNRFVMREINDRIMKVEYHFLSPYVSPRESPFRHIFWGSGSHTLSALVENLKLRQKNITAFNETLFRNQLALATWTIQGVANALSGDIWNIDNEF
Procedure: Briefly, high-binding half-area 96-well plates (Costar 3690, Merck) were coated with ectodomains of hTfR1 and mTfR1 at […] (in PBS pH 7.4). and left over night at 4° C. Plates were blocked for 1 h using 1% BSA 0.05% Tween®20 (Merck) in PBS.

[3] = target: T1, His-tagged ectodomain of human …; assay: SPR; hTfR1 captured on amine-coupled hTf, binder as analyte
Procedure: (§1) The contact time was 150 s for each concentration at […] with a final dissociation step of 500 s. […] The data with respect to the association rate constant (ka), the dissociation rate constant (kd) and the equilibrium dissociation constant (KD) was evaluated using Biacore T200 software evaluation tool applying a Langmuir 1:1 model.

[4] = target: T1, His-tagged ectodomain of human …; assay: SPR Biacore T200 single-cycle; hTfR1 captured on amine-coupled hTf, binder as analyte; 1:1 model
Procedure: as §1

T1 sequence (P02786 other isoform, or with tags, fused parts or gaps limits assumed): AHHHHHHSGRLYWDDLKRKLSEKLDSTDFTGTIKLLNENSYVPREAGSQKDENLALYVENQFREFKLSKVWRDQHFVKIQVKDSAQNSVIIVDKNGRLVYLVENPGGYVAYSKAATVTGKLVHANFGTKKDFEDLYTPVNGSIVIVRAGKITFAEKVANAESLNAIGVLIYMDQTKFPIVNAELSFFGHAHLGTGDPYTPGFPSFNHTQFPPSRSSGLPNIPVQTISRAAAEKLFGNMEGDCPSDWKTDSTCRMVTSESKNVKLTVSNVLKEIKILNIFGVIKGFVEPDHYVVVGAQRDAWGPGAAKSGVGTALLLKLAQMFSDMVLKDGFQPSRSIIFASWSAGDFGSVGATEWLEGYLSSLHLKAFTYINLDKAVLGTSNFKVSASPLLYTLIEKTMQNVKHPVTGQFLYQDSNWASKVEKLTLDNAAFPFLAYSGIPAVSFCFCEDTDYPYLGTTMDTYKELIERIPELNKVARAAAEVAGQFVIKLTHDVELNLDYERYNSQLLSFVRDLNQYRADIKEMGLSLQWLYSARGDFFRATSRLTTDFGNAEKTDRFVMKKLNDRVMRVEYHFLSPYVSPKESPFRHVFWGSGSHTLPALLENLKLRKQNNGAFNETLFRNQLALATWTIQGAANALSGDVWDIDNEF

Kd [1]: 1.8 nM | koff [1]: 0.000259 s⁻¹ | kon [1]: 144000 M⁻¹ s⁻¹ | binding result [2]: binds
B1: scFv-KB_B01 (3D6 scFv at the N-terminus of KB_B01) (bispecific antibody)
chain: EVKLVESGGGLVKPGASLKLSCAASGFTFSNYGMSWVRQNSDKRLEWVASIRSGGGRTYYSDNVKGRFTISRENAKNTLYLQMSSLKSEDTALYYCVRYDHYSGSSDYWGQGTTVTVSGGGGSGGGGSGGGGSYVVMTQTPLTLSVTIGQPASISCKSSQSLLDSDGKTYLNWLLQRPGQSPKRLIYLVSKLDSGVPDRFTGSGSGTDFTLKISRIEAEDLGLYYCWQGTHFPRTFGGGTKLEIKGGGGSGGGGSGGGGSQVQLQESGGGLVQAGGSLRLSCAASGTPFSNNYMRWYRQAPGKQREWVAGFTSGGSTNYADSVKGRFTISRDNAEGTVYLQMDNLKPEDTAVYYCYFLDVWGQGTQVTVSSGSENLYFQSHHHHHH
notes: also called scFv-VHH

Kd [1]: 0.845 nM | koff [1]: 0.00045 s⁻¹ | kon [1]: 535000 M⁻¹ s⁻¹ | binding result [2]: binds
B2: KB_B01-scFv (KB_B01 at the N-terminus of 3D6 scFv) (bispecific antibody)
chain: QVQLQESGGGLVQAGGSLRLSCAASGTPFSNNYMRWYRQAPGKQREWVAGFTSGGSTNYADSVKGRFTISRDNAEGTVYLQMDNLKPEDTAVYYCYFLDVWGQGTQVTVSSGGGGSGGGGSGGGGSEVKLVESGGGLVKPGASLKLSCAASGFTFSNYGMSWVRQNSDKRLEWVASIRSGGGRTYYSDNVKGRFTISRENAKNTLYLQMSSLKSEDTALYYCVRYDHYSGSSDYWGQGTTVTVSGGGGSGGGGSGGGGSYVVMTQTPLTLSVTIGQPASISCKSSQSLLDSDGKTYLNWLLQRPGQSPKRLIYLVSKLDSGVPDRFTGSGSGTDFTLKISRIEAEDLGLYYCWQGTHFPRTFGGGTKLEIKGSENLYFQSHHHHHH
notes: also called VHH-scFv

Kd [1]: 0.189 nM | koff [1]: 0.000117 s⁻¹ | kon [1]: 617000 M⁻¹ s⁻¹ | binding result [2]: binds
B3: BV-scFv (benchmark VHH BV at the N-terminus of 3D6 scFv) (bispecific antibody)
chain: EVQLVESGGGVVQPGGSLKLSCVASGTDFSINFIRWYRQAPGKQREFVAGFTATGNTNYADSMKGRFTISRDNTKNAVYLQIDSLKPEDTAVYYCYMLDKWGQGTQVTVSSGGGGSGGGGSGGGGSEVKLVESGGGLVKPGASLKLSCAASGFTFSNYGMSWVRQNSDKRLEWVASIRSGGGRTYYSDNVKGRFTISRENAKNTLYLQMSSLKSEDTALYYCVRYDHYSGSSDYWGQGTTVTVSGGGGSGGGGSGGGGSYVVMTQTPLTLSVTIGQPASISCKSSQSLLDSDGKTYLNWLLQRPGQSPKRLIYLVSKLDSGVPDRFTGSGSGTDFTLKISRIEAEDLGLYYCWQGTHFPRTFGGGTKLEIKGSENLYFQSHHHHHH

fold lower affinity (KD) than BA1 [3]: 166 fold | Kd [4]: 3.31 nM | koff [4]: 0.00198 s⁻¹ | kon [4]: 597000 M⁻¹ s⁻¹
B4: KB_B01 monomeric VHH with C-terminal 6xHis tag and C-tag (VHH)
VHH: QVQLQESGGGLVQAGGSLRLSCAASGTPFSNNYMRWYRQAPGKQREWVAGFTSGGSTNYADSVKGRFTISRDNAEGTVYLQMDNLKPEDTAVYYCYFLDVWGQGTQVTVSS
notes: Single VHH unit from the E. coli periplasm

Kd [1]: 0.698 nM | koff [1]: 0.000122 s⁻¹ | kon [1]: 175000 M⁻¹ s⁻¹ | binding result [2]: binds
B5: scFv-BV (3D6 scFv at the N-terminus of benchmark VHH BV) (bispecific antibody)
chain: EVKLVESGGGLVKPGASLKLSCAASGFTFSNYGMSWVRQNSDKRLEWVASIRSGGGRTYYSDNVKGRFTISRENAKNTLYLQMSSLKSEDTALYYCVRYDHYSGSSDYWGQGTTVTVSGGGGSGGGGSGGGGSYVVMTQTPLTLSVTIGQPASISCKSSQSLLDSDGKTYLNWLLQRPGQSPKRLIYLVSKLDSGVPDRFTGSGSGTDFTLKISRIEAEDLGLYYCWQGTHFPRTFGGGTKLEIKGGGGSGGGGSGGGGSEVQLVESGGGVVQPGGSLKLSCVASGTDFSINFIRWYRQAPGKQREFVAGFTATGNTNYADSMKGRFTISRDNTKNAVYLQIDSLKPEDTAVYYCYMLDKWGQGTQVTVSSGSENLYFQSHHHHHH
notes: also called scFc-BV

Reference: patent publication US20260116990A1 (KEY2BRAIN, published 2026)
